Results as given in patent US12458688B2, “Epitopes” (Scancell Limited, priority 2018, dated 2025).
Where no end group is shown, it is not given here. [ ]: non-standard residue; d: D form. hCit = NC(=O)NCCCC[C@H](N)C(=O)O

Molecular target: T1, HLA-DP4 (Homo sapiens, UniProt P04440+P20036)
T1 sequence (P20036 29-260): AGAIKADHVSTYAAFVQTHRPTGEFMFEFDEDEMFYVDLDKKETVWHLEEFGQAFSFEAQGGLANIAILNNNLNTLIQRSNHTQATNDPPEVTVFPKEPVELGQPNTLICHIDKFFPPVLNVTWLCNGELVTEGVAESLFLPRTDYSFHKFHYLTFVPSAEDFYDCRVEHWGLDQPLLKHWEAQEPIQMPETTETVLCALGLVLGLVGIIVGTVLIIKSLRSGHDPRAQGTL
T1 sequence (P04440 30-258): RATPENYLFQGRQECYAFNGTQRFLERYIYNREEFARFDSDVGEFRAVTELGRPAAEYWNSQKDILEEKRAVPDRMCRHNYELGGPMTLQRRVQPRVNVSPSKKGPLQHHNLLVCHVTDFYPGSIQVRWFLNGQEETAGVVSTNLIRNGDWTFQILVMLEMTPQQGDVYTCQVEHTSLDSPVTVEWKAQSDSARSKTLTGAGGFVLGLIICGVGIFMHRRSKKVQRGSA
Assay: DP4 competition assay with biotinylated Hep B peptide
Details: inhibition of biotinylated Hep B binding to HLA-DP4; 5 fold excess test peptide, equal amount for unlabelled Hep B
Experimental: 2×T175 gave 2.5×10^7 B16 HHDII/DP4 (B16F1 β2M H2Ab1 dKO A35 HHDII/DP4 H7/2E9/F9 p14) cells. This was enough for 5 preps using the following protocol with Mem-PER™ Plus Membrane Protein Extraction Kit (thermo-scientific cat #89842).
5×10^6 cells were resuspended in the growth media by scraping the cells off the surface of the plate with a cell scraper and then centrifuged at 300 g for 5 mins. The cell pellet was washed with 3 ml of Cell Wash Solution and centrifuged at 300 g for 5 mins. The supernatant was removed and discarded. The cells were resuspended in 1.5 ml of Cell Wash Solution and transfer to a 2 ml centrifuge tube and centrifuged at 300 g for 5 mins. The supernatant was discarded. 0.75 ml of permeabilization buffer was added to the cell pellet and vortexed briefly to obtain a homogeneous cell suspension and incubated for 10 mins at 4° C. with constant mixing. The permeabilized cells were centrifuge for 15 mins at 16,000g before carefully removing the supernatant containing cytosolic proteins and transfering to a new tube. 0.5 ml of solubilization buffer was added to the pellet and resuspend prior to incubating at 4° C. for 30 minutes with constant mixing prior to centrifugation at 16,000g for 15 mins at 4° C. The supernatant containing solubilized membrane and membrane-associated proteins was transfered to a new tube. Aliquots were frozen at −80° C. for future use. 12.5 μl Halt™ Protease and Phosphatase Inhibitor Cocktail, EDTA-free (100X) thermo-scientific (Catalog number 78445) was added prior to freezing.
High binding plates were coated with streptavidin (Sigma S4762 at 1 mg/ml) 1/500 in PBS and incubated overnight at 4° C. The plates were blocked with 1% BSA in PBS for 4 hrs at room temp and washed 3×PBS/0.5% Tweenx. 450 μl of cell prep lysate (B16F1 B16 HHDII/DP4 H7/2E9/F9) was mixed with 50 μg test peptide (see below) or 10 μg of unlabelled Hep B peptide for 30 mins. 10 μg biotinylated Hep B peptide was added & incubated for 4 hrs at 37° C.:
Lysate/peptide mix was added to the plates at 100 μl/well and incubated for 4 hrs at room temperature. Plates were washed 3× with PBS/0.5% Tween. 100 μl per well of Leinco anti-Human HLA-DP4 clone B7/21 #H260 1 mg/ml at 1/500 dilution in 1% BSA/PBS was added and incubated for 1 hr at room temperature prior to washing 3× PBS/0.5% Tween. Goat anti-mouse lgG3-HRP at 0.5 mg/ml 1/500 100 μl per well (Invitrogen #M32607) diluted in 1% BSA/PBS) was added for 1 hr at room temperature prior to washing and adding 150 μl of TMB substrate to each well. The reaction was stopped with 50 μl of 2N H2SO4 and plates read plate at 450 nm.
To ensure that the biotinylation of Hep B had not interfered with its binding, HLA-DP4 was incubated with equal amounts of biotinylated and unlabelled Hep B peptide. Unlabelled peptide competed equally reducing binding by 47% (FIG. 53b).
The biotinylated HepB peptide was then incubated with a 5 fold excess of the unlabelled homocitrulline peptides. All peptides inhibited the binding of biotinylated Hep B to HLA-DP4 but to varying levels (FIG. 53c-e).

**Q.** How did the “% inhibition” value turn out when “IGGVILFHETLYQ-hcit-ADDGRP (IGGVILFHETLYQ[hCit]ADDGRP) [Aldolase A 74-93 Hcit]” was run?
**A.** Its value is 69%.

**Q.** With “LEQQN-hcit-MLET-hcit-WSLLQQQ-hcit-T (LEQQN[hCit]MLET[hCit]WSLLQQQ[hCit]T) [Cyk8 112-131 Hcit]” as the substance, how does the “% inhibition” value read?
**A.** The value was 64%.

**Q.** With “NYID-Hcit-VRFLEQQN-Hcit-ILLAEL (NYID[hCit]VRFLEQQN[hCit]ILLAEL) [Vimentin 116-135 Hcit]” as the substance, how does the “% inhibition” value read?
**A.** Its value is 44%.

**Q.** Which “% inhibition” value does the source give for “LREYQELMNV-hcit-LALDIEI (LREYQELMNV[hCit]LALDIEI) [Cyk8 371-388 Hcit]” here?
**A.** Its value is 72%.

**Q.** Which “% inhibition” value does the source give for “HACTQ-hcit-FSH(N)EEIAMATVTA (HACTQ[hCit]FSHNEEIAMATVTA; not fully specified; printed as HACTQ-hcit-FSH(N)EEIAMATVTA) [Aldolase A 238-256 Hcit]” here?
**A.** Its value is 73%.

**Q.** How did the “% inhibition” value turn out when “KFASFID-Hcit-VRFLEQQN-Hcit-MLE (KFASFID[hCit]VRFLEQQN[hCit]MLE) [Cyk8 101-120 Hcit]” was run?
**A.** Its value is 71%.

**Q.** For “EIN-hcit-RTEMENEFVLI-hcit-hcit-DVDE (EIN[hCit]RTEMENEFVLI[hCit][hCit]DVDE) [Cyk8 182-202 Hcit]”, which “% inhibition” value is on record?
**A.** The value was 61%.

**Q.** For “hcit-DGADFA-hcit-WRCVL-hcit-IGEH ([hCit]DGADFA[hCit]WRCVL[hCit]IGEH) [Aldolase A 140-157 Hcit]”, which “% inhibition” value is on record?
**A.** Its value is 76%.

Same assay, conditions: inhibition of biotinylated Hep B binding to HLA-DP4; 5 fold excess test peptide, equal amount for unlabelled Hep B; listed as Cyk8 281-399 Hcit

**Q.** For “hcit-LALDIEIATYR-hcit-LLEGEE ([hCit]LALDIEIATYR[hCit]LLEGEE) [Cyk8 381-399 Hcit]”, which “% inhibition” value is on record?
**A.** The value was 60%.
